Data taken from the RNAGym collection of RNA variant scans (doi:10.7554/elife.80360).

B1: HDV Ribozyme (parent)
chain: GGCCGGCAUGGUCCCAGCCUCCUCGCUGGCGCCGGCUGGGCAACAUUCCGAGGGGACCGUCCCCUCGGUAAUGGCGAAUGGGACCCA

Variants of: B1
Test: self-cleavage, relative activity (ratio to wild type); higher = more cleavage; co-transcriptional

Variant	self-cleavage
U9G G76A	1.23
U9C C49U	0.959
G17U G59U	0.43
U46C C61U	0.796
U65C U79A	0.644
C49U A70U	0.877
C13A G80A	0.106
G53C U79G	0.443
G76U U79G	0.91
C21A G50A	0.111
C19U G80C	0.112
U9A U65G	1.11
U65C	1.02
C18G	0.131
U69G A78U	0.277
C13U G29U	0.0707
U20A G59C	0.0475
C44A G80A	0.169
C36A C64G	0.0652
C4U U9A	0.739
C44U C63A	0.819
C18U U79C	0.168
U65A C66G	0.932
U27G G59U	1.03

Variant	self-cleavage
G39C G67U	0.277
G17C C75A	0.0536
A16G U46G	0.554
A45U G73C	0.62
U12A C13A	0.0378
C4A U72A	0.0723
G6A A51C	0.522
C41U U72A	0.656
G54A C61G	0.881
A70G C75A	0.201
G76C G80A	0.394
C14A G50U	0.467
C21U C86U	0.282
A8C C49G	0.475
C57G G81A	0.509
U23C C48U	0.806
C14A G59U	1.05
C24A U37A	0.145
C14U C75U	0.138
C3U G68U	0.866
C18U G54A	0.295
C18G G74A	0.0449
C21U A83U	0.162
G11A G68U	0.249

Variant	self-cleavage
G5A C85G	0.147
G50C A71U	0.554
G34C G73C	0.17
G52U C86U	1.02
G28U C84U	0.0489
G54A C66A	0.634
U69A A77U	0.591
G5U G35U	0.108
A70C U72A	0.653
C14U G73C	0.252
G34A C85A	0.199
G38A A78G	0.0755
G11U A42C	0.0308
C7U A16G	0.72
C7A U79C	0.128
A56G C62A	0.467
G67A U69G	0.776
C18G G35A	0.156
A8U C48G	1.25
U72A C86A	0.79
G11C C58U	0.242
C24U C86G	0.577
C33A G55U	0.349
G6A C32U	1.12

Variant	self-cleavage
G1U C22A	0.441
C21A U69C	0.0426
G10U C26G	0.677
U27G G55U	1
U27A G34U	0.272
G34A C64U	0.133
U9A U69A	0.87
G2C U23A	0
G5C C21G	0.125
G28A A87C	0.0676
G6U C13G	0
U9C C58U	0.886
A8U G80A	0.227
G17U G59C	0.432
G52A G74A	0.518
G76C A78G	0.944
C30A C57G	0.284
G55C A78G	0.525
A8G C26A	1.11
C30A A71C	0.345
C66G G68A	0.695
U37G C61U	0.138
G76A C86G	1.08
C18A A45U	0.172

Variant	self-cleavage
A43G C61A	0.499
C57A U65G	1.04
G50C G80U	0.225
G52U C64A	0.911
G2A G25A	0.0346
G5A C15A	0.162
G17C G40A	0.19
A8C C84U	0.462
G2C C44G	0.0656
C7G C18A	0.0639
G52A C66U	0.982
C4A G34A	0.284
G31C G50U	0.208
G74A A83G	0.205
U20C U46A	0.317
U47C U69G	1.02
U27G G31U	0.293
C13U C84A	0.911
G59A C86U	0.793
G10U U20A	0.0639
C33U G67U	0.816
G5U C14A	0.0791
C18G C30G	0.222
G55A A56U	0.926

Variant	self-cleavage
C19A U20C	0
U12G U69G	0.831
C61A G73A	0.641
G38C A56G	0.197
C18U A42G	0.151
C7G C33G	0.237
U20C G59C	0.0898
C49U G53A	0.916
C62A G80C	0.0594
G53C G54U	1.08
U46C G55A	0.878
G31C U65G	0.48
A78C C85A	0.277
C58A C85G	0.957
C30U A51G	0.784
C24U G34C	0.135
G31C C62U	0.386
C21U G73U	0.145
G10C A45G	0.791
G6A C24U	0.308
U27C U60G	0.875
C66U G68U	0.935
C19G G40A	0.0573
G2U C33U	0.0422

Variant	self-cleavage
G31A G82C	0.146
A56C C62U	1.02
G6C G40U	0.0536
C4G C21U	0
G11C A78C	0.0369
C33G A56G	0.222
G53U G74C	0.202
U46G U69G	0.776
C36A A78U	0
C57G G68C	0.831
C4G C26A	0.569
C24A U65A	0.735
C22G A56C	0
G10A G73C	0.19
A45U A83U	0.128
G6C U60A	0.231
C36G A77G	0.0791
A51U C61U	0.781
U27C C58A	0.458
C24A G67U	0.831
C3U C41G	0.499
G28U G35U	0.0936
U9C G28U	0.123
C48U U65G	0.748

Variant	self-cleavage
U9A A42C	0.252
G52C G59U	0.962
G6A C57U	0.665
C64U U72G	0.712
G59U G76U	1.08
G6C C84G	0.138
G25C U69A	0.166
C41U U46C	0.734
C14A G35U	0.232
C7A G40C	0.102
C58G C62G	0.639
G67A G82A	0.285
G34U C64A	0.268
G5C U47C	0.0594
C3A G25C	0.0198
G25C C86U	0.104
C14A U72A	0.332
C26U G74A	0.717
G2C G29U	0.0494
C48G C75A	0.175
C33U A43G	0.227
A56U C62A	1.05
U37G U47C	0.128
U9C C26A	1.25

Variant	self-cleavage
U27A U37G	0.119
A77G C86U	0.886
C63G G68U	0.504
C57A G80C	0.166
C44U G82C	0.0723
U47G G82A	0.59
A43G G53C	0.554
C4G G35C	0.13
G39A G52U	0.478
C3A U23C	0.46
U9A C75G	0.0665
A45C G53A	0.564
C26U C48A	0.917
C63G G82A	0.219
C49U C64U	1.05
G28U U60A	0.17
G52C C62G	0.383
C14A C85U	0.724
G34C C49G	0.264
A45G G59U	0.931
U46G A70U	0.997
G5C C85A	0.199
A51U A56C	0.851
C22A C62U	0.387

Variant	self-cleavage
C63G A87G	0.858
U23C C57U	0.743
C36G C48U	0.231
U60G C66U	1.08
G67A G80C	0.172
C19A G74U	0.101
G2U C62G	0.136
G11U G53U	0.385
C41G C64A	0.853
G11U A78G	0.106
C30G A51U	0.0297
C14G C58U	0.646
G55C A87U	1.02
G54A G68U	0.641
C14U G50A	1.01
U20A A78G	0
A8G C15G	0.262
G17A G73C	0.0615
G1U G68C	0.431
G11C U65G	0
U20A C61G	0.0536
U37A G53U	0.302
C41U G59U	0.937
G39C C63A	0.259

Variant	self-cleavage
G31A A87C	0.385
C44U G68A	0.681
G28A A77U	0.104
U46C A71G	1.2
A8C U12C	0.208
G29U C86A	0.169
G54C C84A	0.598
U9A G38C	0.237
C4G U12C	0.0665
G17U G68U	0.611
A8G A87U	0.991
G81U C86G	0.27
C24U C84G	0.157
U79G C84G	0.185
C36A G39U	0.0906
U9C C36G	0
G80U C85U	0.227
A51G C66A	0.889
A43G U46A	0.782
C33U G50U	0.92
U12C C15G	0.147
U27G G76C	1.14
G35U G53U	0.288
G6C G53A	0.233

Variant	self-cleavage
U27A C36A	0
U69G G81U	0.374
G81U C84U	0.228
C44A C48G	0.594
C19U C44G	0.0519
G10A A83G	0.258
G54A C58G	1.03
C24U G53A	0.87
U9A C44U	0.95
A45U U46A	0.639
G31A A45C	0.262
C30A G81A	0.111
G50A G76A	1.05
C63U A87C	0.894
U23A G29U	0
G11A C64U	0.249
A45U C62U	0.923
A43U G67C	0.354
C4G C66U	0.445
G67U G76U	1.08
C44G G53U	0.939
U37A C62G	0.151
A16U G76U	1.05
G1C G67U	0.0739

Variant	self-cleavage
C41G G76C	0.91
C15G G17A	0.133
C30A U37A	0
U20G U27G	0.332
U46G C66U	0.673
A16G G39A	0.404
U37A G67U	0.272
U69A A71G	0.731
C21U U37G	0.0875
C22G C30A	0.0652
A43C U47C	0.208
G25C C85U	0
C48U C66U	0.947
G5U A87U	0.293
C30U C64A	0.422
C24G G68C	0.126
G40U A78C	0.132
G67U U79C	0.231
U69C G82U	0.554
G11C G31C	0.0791
U46A C66G	1.05
G2C C33G	0.0514
U20A C58A	0.0615
U27C U79C	0.101

Variant	self-cleavage
U79C C86G	0.284
A70U G76U	1.07
C7G C21A	0
C58U A77G	0.929
U65G A83C	0.703
C7G A56G	0.208
C24G G82C	0
C14U G29C	0.0941
C48U C62U	1.15
C3G G25A	0.0511
A8G C49G	1.27
C18U G73A	0.161
A78C C84A	0.156
C32U C66A	0.991
A8C C86A	0.72
C15G G74C	0.119
C13U A70C	0.453
U23C G82A	0.314
G35U C63A	0.389
G40C A87C	0.245
C4G U20A	0.0536
U72C U79C	0.277
